B1: LCC^ICCG (unidentified prokaryotic organism; D238C/F243I/S283C/Y127G) (protein)
chain: QSNPYQRGPNPTRSALTADGPFSVATYTVSRLSVSGFGGGVIYYPTGTSLTFGGIAMSPGYTADASSLAWLGRRLASHGFVVLVINTNSRFDGPDSRASQLSAALNYLRTSSPSAVRARLDANRLAVAGHSMGGGGTLRIAEQNPSLKAAVPLTPWHTDKTFNTSVPVLIVGAEADTVAPVSQHAIPFYQNLPSTTPKVYVELCNASHIAPNSNNAAISVYTISWMKLWVDNDTRYRQFLCNVNDPALCDFRTNNRHCQ
notes: ICCG variant of LCC, synthetic gene in pET-29a, C-terminal His6-tag, E. coli BL21(DE3), Ni-NTA purified
B2: LCC^ICCG-ChBD (unidentified prokaryotic organism; D238C/F243I/S283C/Y127G) (protein)
chain: B1 chain
notes: C-terminal His6-tag; pET-29a, E. coli BL21(DE3), Ni-NTA purified; Chitinolyticbacter meiyuanensis SYBC-H1

Substrate: CCCC(=O)Oc1ccc([N+](=O)[O-])cc1
Test: purified protein
Assay type: biochemical, unidentified prokaryotic organism
Conditions: 50 mM phosphate buffer pH 8.0, isopropanol as substrate solvent, temperature not stated

Protein | Km [µM] | kcat [s⁻¹] | kcat/Km [M⁻¹ s⁻¹]
B1 | 126.3 | 67.5 | 534000
B2 | 141.8 | 68.4 | 404000

Source: PMC8715031, “Fusion of Chitin-Binding Domain From Chitinolyticbacter meiyuanensis SYBC-H1 to the Leaf-Branch Compost Cutinase for Enhanced PET Hydrolysis” (Frontiers in Bioengineering and Biotechnology, 2021)
